In patent US6143507A, “High throughput compatible assay for receptor-TRAF interactions” (Boehringer Ingelheim Pharmaceuticals, Inc., priority 1998, dated 2000):
Each block holds one molecule with its values, some of them ahead of it. Residues, ends and D or L forms follow the SMILES beside them.

Tests used:
CD40c-TRAF2 interaction = biological target: T1, CD40c-TRAF2 interaction (Homo sapiens, UniProt Q12933); test: Flashplate assay of CD40c-TRAF2 interaction (biotin-CD40c, TRAF2(NC)-CA21, 125I-CA21 Fab); format: binding; conditions: 0.44 μg/ml biotin-CD40c; for IC50: 5 μg/ml TRAF2(NC)-CA21, peptide preincubated with TRAF2(NC)-CA21, read-out: IC50 for inhibition of CD40c-TRAF2 interaction
T1 construct: 1 and 2, respectively; made in house; host or cells: TRAF2(NC)-CA21: Spodoptera frugiperda Sf21 cells (baculovirus); CD40c: Escherichia coli BL21 (DE3)
T1 sequence (Q12933 with tags, fused parts or gaps): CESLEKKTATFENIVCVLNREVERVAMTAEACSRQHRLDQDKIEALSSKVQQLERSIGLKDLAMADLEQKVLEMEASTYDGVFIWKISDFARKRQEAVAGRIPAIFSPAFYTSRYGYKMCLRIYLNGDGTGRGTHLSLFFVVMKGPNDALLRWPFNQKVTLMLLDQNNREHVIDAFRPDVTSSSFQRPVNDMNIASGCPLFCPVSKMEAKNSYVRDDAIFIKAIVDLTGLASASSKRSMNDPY
Procedure: FIG. 2. Peptide antagonists of CD40c-TRAF2 interaction. Streptavidin flashplates were coated with 0.44 μg/ml biotin-CD40c. Stock solutions of peptides were prepared at 1 mg/ml in assay buffer and the pH verified. All peptides were assayed by preincubating with TRAF2(NC)-CA21 at a final peptide concentration of 0.5 mg/ml. Peptides were serially diluted 1.5-fold prior to addition of the TRAF2(NC)-CA21 (5 μg/ml final). Results are means of duplicate points except for the no inhibitor wells (none, closed circles) that are means i standard deviation of 11 replicates. A) Peptides AcPVQET-NH2 (closed squares), AcNTAAPVQET-NH2 (closed triangles), AcNTAAPVQETLH-NH2 (open triangles), CD30.B (AcDVMLSVEEEGKE-NH2, open circles); B) Peptides AcIQET-NH2 (closed squares), AcPIQET-NH2 (closed triangles), AcQEPQEINF-NH2 (open triangles), CD40c (open circles). The maximum signal in B) is less due to a difference in the decay of the ^125 I-Fab.
Significant signal was detectable as low as 0.054 μg/ml biotin-CD40c (FIG. 1). Standard conditions for the assay were selected to be 0.44 μg/ml CD40c and 5 μg/ml TRAF2(NC)-CA21. These conditions provided a signal/noise of eight to ten and a good dynamic range for the detection of inhibitors or enhancers. […] As noted by the manufacturer of the plates, low concentrations of detergents were strong inhibitors of the assay because they removed the streptavidin from the wells. […] The PVQET sequence in the CD40 cytoplasmic domain is essential for signaling through CD40 and is thought to be a core TRAF2 binding sequence. Devergne, O., et al (1996) Mol. Cell. Biol. 16, 7098-7108; Innui, W., et al (1990) Eur. J Immunol. 20, 1747-1753. Therefore several peptides around the PVQET sequence were tested for the ability to compete the CD40c-TRAF2 interaction (FIG. 2A). […] FIG. 2A.
Biotin-CD40c (0.5 μg/ml) was bound to streptavidin-coated 96-well scintillant-embedded plates (Flashplates, New England Nuclear, catalog #15112) overnight at 4° C. in D-PBS, 0.1 mM DTT, 0.01% BSA (100 μl/well). Plates were blocked for 2 hr at room temperature by the addition of Dulbecco's-PBS, 0.1 mM DTT, 1.0% BSA (100 μl/well). In a separate 96-well round bottom polypropylene plate peptide inhibitors were diluted in 40 mM HEPES, pH 7.5, 0.1 M NaCl, 1.0 mM MgCl2, 0.1 mM DTT, 0.01% BSA, and TRAF2(NC)-CA21 was added at a final concentration of 5 μg/ml. Plates were preincubated for 30 min at room temperature. After washing the biotin-CD40c-coated flashplate three times with D-PBS, 0.1 mM DTT, inhibitor-TRAF2(NC)-CA21 mixtures were transferred from the preincubation plate to the washed plate (100 μl/well). Alternatively, after washing the biotin-CD40c-coated flashplates, inhibitors were added directly without TRAF preincubation in a final volume of 50 μl 40 mM HEPES, pH 7.5, 0.1 M NaCl, 1.0 mM MgCl2, 0.1 mM DTT, 0.01% BSA, and 50 μl/well TRAF2(NC)-CA21 (10 μg/ml stock to make a final concentration of 5 μg/ml) was added. Flashplates were incubated for 1 hr at room temperature, washed three times with 40 MM HEPES, pH 7.5, 0.1 M NaCl, 1.0 mM MgCl2, 0.1 mM DTT, and 100 μl/well of [^125 I]CA21 Fab fragment at an adjusted specific activity of 0.08 μCi/well added in […] HEPES, pH […] 7.5, 0.1 M NaCl, 1.0 mM MgCl2, 0.1 mM DTT, 0.1% BSA. After a 1 hr incubation at room temperature plates were sealed and counted in a TopCount scintillation counter (Packard; one minute/well, 2 minute plate delay).

TRAF2(NC)-CA21 (human) = biological target: T2, TRAF2(NC)-CA21 (human); test: flashplate competition assay, inhibition of TRAF2(NC)-CA21 binding to biotin-CD40c
T2 sequence: T1 sequence (Q12933 with tags, fused parts or gaps)

[1] = system: GST-CD40-TRAF interaction; conditions: cited from earlier work

Molecule: CD40c (nonbiotinylated CD40c polypeptide) (from UniProt P25942) (receptor)
- IC50 (TRAF2(NC)-CA21 (human)): 50 µM

B1: AcPIQET-NH2 (peptide)
peptide: Ac-PIQET-NH2
- IC50 (TRAF2(NC)-CA21 (human)): 70 µM

B2: AcPVQET-NH2 (peptide)
peptide: Ac-PVQET-NH2
- IC50 (TRAF2(NC)-CA21 (human)): 90 µM

B4: AcIQET-NH2 (peptide)
peptide: Ac-IQET-NH2
- IC50 (TRAF2(NC)-CA21 (human)): 140 µM
- fold decrease of inhibitory activity against PIQET (TRAF2(NC)-CA21 (human)): 2 fold

Further lines, with some results ahead:

- IC50 (CD40c-TRAF2 interaction): ~140 µM
Molecule: CC[C@H](C)[C@H](NC(C)=O)C(=O)N[C@@H](CCC(N)=O)C(=O)N[C@@H](CCC(=O)O)C(=O)N[C@H](C(N)=O)[C@@H](C)O [IQET, AcIQET-NH2] (Ac-IQET-NH2)

- IC50 (CD40c-TRAF2 interaction): ~90 µM
- ability to inhibit (compete) CD40c-TRAF2 interaction, in words (CD40c-TRAF2 interaction; 5 μg/ml TRAF2(NC)-CA21, peptides up to 0.5 mg/ml): most potent
Molecule: Ac-PVQET-NH2 [PVQET, AcPVQET-NH2]

- IC50 (CD40c-TRAF2 interaction): ~70 µM
Molecule: Ac-PIQET-NH2 [PIQET, AcPIQET-NH2]

- IC50 (CD40c-TRAF2 interaction): ~50 µM
B3: CD40c: 62 amino acid human CD40 cytoplasmic domain (amino acids 216-277) expressed in E. coli (protein)
chain: KKVAKKPTNKAPHPKQEPQEINFPDDLPGSNTAAPVQETLHGCQPVTQEDGKESRISVQERQ
modifications: also: biotinylated via D-biotinoyl-aminocaproic acid NHS ester, one or two biotin per molecule, sites not given here
notes: 62 amino acid human CD40 cytoplasmic domain (amino acids 216-277) expressed in E. coli
- ability to compete for GST-CD40-TRAF interaction [1]: weak ability to compete
